In this assay the target is T1, CD40hfc (R&Dsystems, USA) (human, UniProt P25942 21-193).
T1 construct: Bought reagent, amine-coupled to the Biacore chip; also called immobilized CD40 receptor; not shown: Fc part of the bought CD40hfc
Description: SPR, Biacore 3000; CD40hfc amine-coupled to chip, antibody as analyte; 37 C, pH 7.3. As to the method: The affinity measures of purified antibodies by surface plasmon resonance using the Biacore 3000 instrument was performed according to manufacturer's protocols.
The CD40hfc (R&Dsystems, USA) was immobilized to the BIAcore sensorchip, CMS, using conventional amine coupling. The anti-CD40 antibodies of the invention, (serially diluted 1/3 from 1-0.012 nM) were analysed for binding in HBS-P (GE, BR-1003-68) at a flow rate of 30 μl/min at 37° C. and pH 7.3. The association was followed for 3 minutes and the dissociation for 10 minutes. Regeneration was performed twice using 50 mM NaOH for 30 seconds. The kinetic parameters and the affinity constants were calculated using BIAevaluation 4.1 software.
(In SPR one partner is held on a chip, and binding of the other changes the refractive index at the surface.)

T1 sequence (P25942 21-193): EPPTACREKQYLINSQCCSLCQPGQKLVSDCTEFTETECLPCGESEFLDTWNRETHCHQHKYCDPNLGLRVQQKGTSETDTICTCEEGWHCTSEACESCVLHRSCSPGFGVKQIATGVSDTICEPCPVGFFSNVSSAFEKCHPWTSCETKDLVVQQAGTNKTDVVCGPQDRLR

B1: Antibody clone F6 (antibody, human IgG1, lambda, V domains shown)
VH: EVQLLESGGGLVQPGGSLRLSCAASGFTFSTYGMHWVRQAPGKGLEWLSYISGGSSYIFYADSVRGRFTISRDNSENALYLQMNSLRAEDTAVYYCARILRGGSGMDLWGQGTLVTVSS
VL: QSVLTQPPSASGTPGQRVTISCTGSSSNIGAGYDVYWYQQLPGTAPKLLIYRNINRPSGVPDRFSGSKSGTSASLAISGLRSEDEADYYCAAWDGSLLGLVFGGGTKLTVLG
notes: Tested as purified antibody
In turn, B1 yielded a koff of 0.00032 s⁻¹.

B2: Antibody clone F9 (antibody, human IgG1, lambda, V domains shown)
VH: EVQLLESGGGLVQPGGSLRLSCAASGFTFSTYGMHWVRQAPGKGLEWLSYISGGSSYIFYADSVRGRFTISRDNSENALYLQMNSLRAEDTAVYYCARILRGGSGMDLWGQGTLVTVSS
VL: QSVLTQPPSASGTPGQRVTISCTGSSSNIGAGYGVYWYQQLPGTAPKLLIYGNINRPSGVPDRFSGSKSGTSASLAISGLRSEDEADYYCAAWDGTLTGLLFGGGTKLTVLG
notes: Tested as purified antibody
Molecule B2 had a koff of 0.00012 s⁻¹.

By koff is commonly meant the first-order rate constant of dissociation. A low value points to slow dissociation.
